# Reference: the DeepSol protein solubility set
# Experiment: soluble on expression in E. coli; label from the status in PepcDB or PDB records
row,Sequence,soluble on expression in E. coli
1,MVMNAILKKTHFSTAEYLADLAVQALIDEVNLTPKPALVDRRGGGAHDDLNLELMEKSAYSLFPMFKAMAEAAEIHGEVNQALREDIGQLGRQGEQRMLQVTHGINTHRGAIWSIGLVLTATALTLYKQEPCLITEICKTAAEIALLEDRFIPKQQFSHGQMVRQKFGINGAKQQAQQGFPIILEFGLVQLQCSRALNTTETEARLNALLAMMAELSDTCVVHRAGLDGLNMMQSGAREVLQLGGCSTNEGQQRLEQLEQNLLRIRASAGGAADLLATLLFLDQAEQHNSSAPQGRRNQWKY,not soluble
2,MVNTRPPKIDELLKIDPYLHDFQDEISRRYGVFLDYQRRIEECGGMEEFTSSYKQFGLNVQPDNSVKGLEWAPAAEKLALIGDFNNWDQNANVYKKEEHGKWSITVPAKEDGSCPIPHNSVIKIAVSRHGATHFKLSPWATFVTCPNPKETVIYHQNFWNPPEKYQLKEARPARPASLRIYEAHVGISSSEGKINTYREFADDVLPRIQKQGYNAIQLMAVMEHVYYASFGYQVSNFFAVSSRCGTPEDLKYLVDKAHSLGIFMLLDVVHSHASKNVEDGLNQWDGSNGGYFHDNARGYHNLWDSRLFDYTQTETLRFLLSNVRWWVEEYGFDGFRFDGVSSMIYHSHGMNDDFCGGYPMYFGLNADTDSLVYLMLANDFLHKKYPFMITIAEEVSGMPGICRPVEEGGQGFDYRLAMALPDMWIKILKHTSDEDWKIDDIVFNLENRRYAEKHVAYAESHDQALVGDKTIAFWLMDKEMYDFMSTDSPLTPIIDRGLSLHKLIRLITIGLGGEAWLNFIGNEFGHPEWLDFPRVGNGESFHYARRQFNLVDAEYLRYKFLNNWDREMMLLEERTGFLHKGYAYTSWKHDGDKTIVFERGGLVFVINLHPTKSFADYSIGVNTPGRYRIALNSDESKFGGHNRIDNSIKFHTTDDGYAGRRHRLQVYITCRTAIVLEKEDD,not soluble
3,MVPLVAVVSGPRAQLFACLLRLGTQQVGPLQLHTGASHAARNHYEVLVLGGGSGGITMAARMKRKVGAENVAIVEPSERHFYQPIWTLVGAGAKQLSSSGRPTASVIPSGVEWIKARVTELNPDKNCIHTDDDEKISYRYLIIALGIQLDYEKIKGLPEGFAHPKIGSNYSVKTVEKTWKALQDFKEGNAIFTFPNTPVKCAGAPQKIMYLSEAYFRKTGKRSKANIIFNTSLGAIFGVKKYADALQEIIQERNLTVNYKKNLIEVRADKQEAVFENLDKPGETQVISYEMLHVTPPMSPPDVLKTSPVADAAGWVDVDKETLQHRRYPNVFGIGDCTNLPTSKTAAAVAAQSGILDRTISVIMKNQTPTKKYDGYTSCPLVTGYNRVILAEFDYKAEPLETFPFDQSKERLSMYLMKADLMPFLYWNMMLRGYWGGPAFLRKLFHLGMS,not soluble
4,MVQDQLTSILTTVGLNLMAKLTDNSRSVVISPSEVALSVAKSTLKHCEPLPYELFQSDYESEFRELIEQLENFEAMKVNPSPPVWNFAISEFKKKNFKLSNGKLKKMNFIWINLETNMELSCEKTGAQMAQDKEFKVLSIPLAGDAGKFVVFFPENQEETIEESLKKLNTRKFQRLIDDLVPKFIHFEHPVFKIQSKFFISENLTMTDRGLTHEKEFEVCHGENNDFRRGLLMDRCEYVPYIFRVNRPFIFCVVQNGVPVTMGIFDGN,not soluble
5,MVQHSDEKGGAMTTLAIDIGGTKLAAALIGADGQIRDRRELPTPASQTPEALRDALSALVSPLQAHAQRVAIASTGIIRDGSLLALNPHNLGGLLHFPLVKTLGQLTDLPTIAINDAQAAAWAEYQALEGDITDMVFITVSTGVGGGVVSGGKLLTGPGGLAGHIGHTLADPHGPVCGCGRTGCVEAIASGRGIAAAAQGELAGADAKTIFMRAGQGDEQAQQLIHRSAHVLARLIADIKATTDCQCVVVGGSVGLAEGYLALVETYLAQEPAAFHVDLLAAHYRHDAGLLGAALLAQGEKL,soluble
6,MVRIIVKNVSKVFKKGKVVALDNVNINIENGERFGILGPSGAGKTTFMRIIAGLDVPSTGELYFDDRLVASNGKLIVPPEDRKIGMVFQTWALYPNLTAFENIAFPLTNMKMSKEEIRKRVEEVAKILDIHHVLNHFPRELSGAQQQRVALARALVKDPSLLLLDEPFSNLDARMRDSARALVKEVQSRLGVTLLVVSHDPADIFAIADRVGVLVKGKLVQVGKPEDLYDNPVSIQVASLIGEINELEGKVTNEGVVIGSLRFPVSVSSDRAIIGIRPEDVKLSKDVIKDDSWILVGKGKVKVIGYQGGLFRITITPLDSEEEIFTYSDHPIHSGEEVLVYVRKDKIKVFEKN,soluble
7,MVRKMNKLAKRLASTSKSRQPEPESDSDGSEFDFDNAIEEKPMEAMDIEEVESDGDDDERELQAAFAAGLLKDGLNIQVAKKRPIINKSAEMKEKLAEITKDLPWVETLEVVTPHSEMDKKVENDDFQRELNFYKQAEKAVQIAYPRLLNLGIKVLRPTDYYAEMAKSDTHMQKVRKRLLGIQEMKERQEAFRRIREEKKFAVKVQKEVLAAKNTEKKNLAEAVKKHKKGMKQQLEDMLNNVKRHGLDQDDDAPTGAFGDRLGGRGGAGRGGAGRGGSMRNAGELKRKLKSDKFGYGGKKKGMKRNNKESFNDLFGAPRGGFGGRGRGGGRGGRGGRGRR,not soluble
8,MVRKVNIIKGNEGQGKRIKFVQLIFVDINGMPKGMEVPITRLEEAIEEGIAFDGSSVPGFQGIEDSDLVFKADPSTYVEVPWDNVARVYGYIYKDGKPYEADPRGVLRRTLERLEKLGIKVYIGPEPEFYLFKKNGSWELEIPDVGGYFDILTLDKAKDIKREIAEYMPYFGLTPEVLHHEVGKAQHEIDFRHDEALKTADNIVSFKYIVKAVAEMHGLYATFMPKPIYGMPGNGMHLHISLWKDGENIFKGEEGLSETALYFIGGLLKHAKALAAVTNPTVNSYKRLVPGYEAPVYISWGYKNRSALIRVPAFWGNGARIEYRCPDPSANSYLAFAAILMAGLDGIKHKIEPFAYVEENVYEMDEKRREEIGIDMLPENLGEALDELERDKVVKEALGGAYRNFVGYKRKEWEEYLDYLEAKNLPKDTKNVTEWELERYFFI,soluble
9,MVSEPKVPKAPRPPKQPNVQDFQFFPPRLFELLEKEILYYRKTIGYKVPRNPDLPNSAQVQKEEQLKIDEAEPLNDEELEEKEKLLTQGFTNWNKRDFNQFIKANEKWGRDDIENIAREVEGKTPEEVIEYSAVFWERCNELQDIEKTMAQIERGEARIQRRISILEHHHHHH,soluble
10,MVSVEDYYTSEEKICDGIFVGNYGERKGSRYLFQIWDKVNEKIDAKLCIIGKGWSEIPKNSVYYGFVTEREKIDLLAKSKVFVFPSLYEGFALAVTEALSAYLPVVTWDLKWSERYPVAIRVTYPDISSFAEEVVKLLKDEKLRKSIGEKSREL,soluble
11,MVSVIKPEMKMRYYMDGSVNGHEFTIEGEGTGRPYEGHQEMTLRVTMAKGGPMPFAFDLVSHVFCYGHRPFTKYPEEIPDYFKQAFPEGLSWERSLEFEDGGSASVSAHISLRGNTFYHKSKFTGVNFPADGPIMQNQSVDWEPSTEKITASDGVLKGDVTMYLKLEGGGNHKCQFKTTYKAAKKILKMPGSHYISHRLVRKTEGNITELVEDAVAHSLEHHHHHH,soluble
12,MVTDHGYKCRITNIVPLSEHEKLFQLRIVDPRERELFTFRPGQFLMLEVPGYGEAPISISSATSNREFIELCIRKAGHVTSALFEAKQGAFVAVRGPFGTSFPMEAMQDHDVLLIAGGLGIAPLRAPLFWINDHRDHYRNVSFLYGAKEPSQMLFTYQFEEWKTVSHIDLHTIVEKPDDQWTGRTGMITLLFDEITIDPKNTWAIVCGPPVMFKFVCTHLDKLGIPMNRMFVSLERHMNCGMGKCCRCMVGSTFTCLDGPVFDYWSVMNLKEAI,not soluble
13,MVTKEQVVEALEGIVDPFLHKTLKETSAIKEVTVKPEKEHVSVKIAIVKTGTAEQMQLQSGIVKLVKELGAATVGLRFAEFTEEELAQFAPEQEEEQSESLLSPNSKTTFLAVASGKGGVGKSTVSVNLAVALARLGKKVGIIDADIYGFSVPDMMGIEKRPIVRGDKIIPVERLGVKVISMGFFVEDNAPVIWRGPMLGKMLNHFFTEVEWGDLDYLVLDLPPGTGDVALDVHSMLPSCKEIIVTTPHPTAAFVAARAGAMALRTEHSILGVVENMAYFESKVTGEKEYVFGKGGGDKLATELQTNVLGRIPLQQPDWNKEDFAPSVYEDTHTTGIIYSKIAETVIDKTAVTQK,not soluble
